Measurements published in US9808434B2, “Compound for treating cancer and diabetes” (CITY OF HOPE, priority 2011, dated 2017).

Substrate: O=C(Nc1cc(Cl)cc(Cl)c1)Nc1cc(Cl)cc(Cl)c1
Test: Kinetics of GST-P using COH-SR4 as a substrate
Assay type: biochemical
Settings: other: COH-SR4 as substrate, 1 mM GSH, pH 6.5, 340 nm, 37.0 °C
Method: The cDNA of GSTP was cloned into the prokaryotic expression plasmid vector, pET30a(+) (Novagen), creating the GSTP-pET30a(+) plasmid free of extraneous sequences. Bam H1 and Xhol restriction sites were used for cloning. This plasmid was transfected into E. coli BL21 (DE3). Protein was expressed in E. coli BL21 (DE3) grown at 37° C. Once the OD600 reached 0.6 protein was induced with 0.4 mM IPTG.
All purification steps were carried out at 4° C. unless otherwise specified. All buffers were prepared fresh and filter sterilized. Briefly, bacteria was lysed in 10 mM K-PO4 buffer pH 7.0 containing 1.4 mM β-mercaptoethanol (Buffer A) and 100 μM PMSF followed by sonication at 50 rpm for 3 times at 30 sec each. […] The supernatant was mixed with GSH-affinity resin for coupling for overnight at 4° C. The unbound proteins were washed with Buffer B until OD at 280 nm is zero. Bound protein (purified GSTP) was eluted with 50 mM Tris-HCl, pH 9.6 containing 1.4 mM β-mercaptoethanol. Elutes protein was dialyzed against Buffer A for overnight and the GSTP protein concentration was checked by Bradford's assay.
Reaction systems were prepared by mixing COH-SR4 (50 μL, various final concentrations of 0˜10 μM), 100 μL of 10 mM GSH (GSH solution in GST assay buffer, pH 6.5), 10 μL of GSTP enzyme (0.52 mg/mL) and having 840 μL GST assay buffer (100 mM K-PO4 buffer, pH 6.5). […]

B1: GST-P (Homo sapiens) (protein)
chain: MPPYTVVYFPVRGRCAALRMLLADQGQSWKEEVVTVETWQEGSLKASCLYGQLPKFQDGDLTLYQSNTILRHLGRTLGLYGKDQQEAALVDMVNDGVEDLRCKYISLIYTNYEAGKDDYVKALPGQLKPFETLLSQNQGGKTFIVGDQISFADYNLLDLLLIHEVLAPGCLDAFPLLSAYVGRLSARPKLKAFLASPEYVNLPINGNGKQ
notes: made in house; host or cells: E. coli BL21 (DE3)
B1 was tested, and the Km was 40 µM.
